For 1 substance, cell-cell adhesion of GFP-CSCs (08387) to a confluent EC monolayer after pre-incubation of ECs with a neutralizing antibody to integrin αvβ3; percent reduction of CSC adhesion results are on record in PMC5190064.

In this test the target is integrin αvβ3 expressed on primary human brain endothelial cells (ECs) (human (endogenous in primary brain ECs)) (UniProt P06756).
Sequence of UniProt P06756 (P06756 31-1048, chain 1 of 2): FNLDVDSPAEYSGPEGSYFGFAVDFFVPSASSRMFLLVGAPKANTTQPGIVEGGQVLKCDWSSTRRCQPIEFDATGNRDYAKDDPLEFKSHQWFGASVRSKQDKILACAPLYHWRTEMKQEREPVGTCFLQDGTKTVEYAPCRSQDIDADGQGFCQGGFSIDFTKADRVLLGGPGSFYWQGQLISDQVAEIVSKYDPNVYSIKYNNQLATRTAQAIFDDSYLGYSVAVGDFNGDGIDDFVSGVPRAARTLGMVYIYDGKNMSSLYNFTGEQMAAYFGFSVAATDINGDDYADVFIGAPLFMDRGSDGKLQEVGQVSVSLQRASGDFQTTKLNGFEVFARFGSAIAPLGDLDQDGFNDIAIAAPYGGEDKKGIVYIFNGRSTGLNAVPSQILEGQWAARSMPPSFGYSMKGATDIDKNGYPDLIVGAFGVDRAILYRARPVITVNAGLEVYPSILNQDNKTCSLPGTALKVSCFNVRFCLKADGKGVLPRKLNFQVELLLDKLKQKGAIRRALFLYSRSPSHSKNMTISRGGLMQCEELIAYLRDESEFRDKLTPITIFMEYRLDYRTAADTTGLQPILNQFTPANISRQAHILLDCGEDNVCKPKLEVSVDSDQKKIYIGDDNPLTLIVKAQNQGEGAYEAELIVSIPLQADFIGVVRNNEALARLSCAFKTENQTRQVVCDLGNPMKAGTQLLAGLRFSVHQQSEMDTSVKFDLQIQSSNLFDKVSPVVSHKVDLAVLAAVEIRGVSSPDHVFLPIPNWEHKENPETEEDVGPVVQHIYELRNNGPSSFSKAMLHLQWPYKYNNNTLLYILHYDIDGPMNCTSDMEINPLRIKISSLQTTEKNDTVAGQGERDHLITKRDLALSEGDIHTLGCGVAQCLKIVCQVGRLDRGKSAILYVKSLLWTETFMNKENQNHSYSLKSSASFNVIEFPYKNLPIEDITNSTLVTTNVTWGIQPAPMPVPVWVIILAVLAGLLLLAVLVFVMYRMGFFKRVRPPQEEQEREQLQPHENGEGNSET
Sequence of UniProt P06756 (P05106 27-788, chain 2 of 2, further chain): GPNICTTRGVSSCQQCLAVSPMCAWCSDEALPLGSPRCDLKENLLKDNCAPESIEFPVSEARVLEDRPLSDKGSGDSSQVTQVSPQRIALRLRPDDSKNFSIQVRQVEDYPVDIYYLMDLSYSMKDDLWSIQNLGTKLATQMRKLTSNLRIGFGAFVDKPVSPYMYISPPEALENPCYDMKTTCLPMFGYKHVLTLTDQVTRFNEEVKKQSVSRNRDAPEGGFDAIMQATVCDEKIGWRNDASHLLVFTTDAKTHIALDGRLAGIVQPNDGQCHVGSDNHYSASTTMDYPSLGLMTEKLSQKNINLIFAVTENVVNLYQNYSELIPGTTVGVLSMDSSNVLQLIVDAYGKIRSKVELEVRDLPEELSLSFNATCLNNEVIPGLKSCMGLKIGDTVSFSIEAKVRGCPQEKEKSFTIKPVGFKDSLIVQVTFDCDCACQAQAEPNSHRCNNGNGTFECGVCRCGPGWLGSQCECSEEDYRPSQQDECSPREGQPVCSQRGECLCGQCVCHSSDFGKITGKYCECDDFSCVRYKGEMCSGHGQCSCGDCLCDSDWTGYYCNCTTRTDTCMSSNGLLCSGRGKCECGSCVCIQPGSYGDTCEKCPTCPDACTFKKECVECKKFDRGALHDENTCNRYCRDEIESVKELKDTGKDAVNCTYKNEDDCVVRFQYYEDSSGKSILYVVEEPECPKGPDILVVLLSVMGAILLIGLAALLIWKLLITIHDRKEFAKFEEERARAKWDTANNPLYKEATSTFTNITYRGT

Take “L1CAM expressed on cancer stem-like cells (CSCs) from glioblastoma (from UniProt P32004 20-1257) (receptor)”: the cell-cell adhesion of GFP-CSCs (08387) to a confluent EC monolayer after pre-incubation of ECs with a neutralizing antibody to integrin αvβ3; percent reduction of CSC adhesion was 43%.
